One molecule from patent US20240199739A1 (Takeda / Millennium, published 2024) can be followed below.

For the assay, the target named is cyno EpCAM (cyno). Kind of assay: assay not stated; drawn table, heading 'Binding Affinity (nM)', column 'Cyno'.
Chain of cyno EpCAM (cyno) (Q1WER1 24-265): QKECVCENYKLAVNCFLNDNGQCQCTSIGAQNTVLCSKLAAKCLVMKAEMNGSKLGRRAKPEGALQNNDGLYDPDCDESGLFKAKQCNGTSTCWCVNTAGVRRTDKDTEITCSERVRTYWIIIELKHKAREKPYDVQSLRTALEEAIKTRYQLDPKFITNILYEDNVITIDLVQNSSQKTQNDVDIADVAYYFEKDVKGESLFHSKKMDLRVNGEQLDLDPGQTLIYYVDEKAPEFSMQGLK

B1: hVIB-23 (VHH)
VHH: QVQLVESGGGLVQPGGSLTLSCVISGSFSALWAMRWYRQAPGQQRELVASSRGGTTSYADSVKGRFTISRDNSKNTLYLQMNSLRPEDTAVYYCNAIDGHLAYWGQGTLVTVSS
B1 had a Kd of 51.8 nM. This lies in the double-digit nanomolar range.
